{
  "source": "patent US12365875B2",
  "about": "“Methods for generating skeletal muscle progenitor cells” (The Regents of the University of California, priority 2017, dated 2025)",
  "test_system": "hPSC-SMPCs",
  "test": "Passaging and expansion of hPSC-SMPCs with added factors, gene expression",
  "format": "cell-based, human",
  "protocol": "At day 50, myogenic genes PAX7, MYF5, MYOD, MYOG, and MYH3 were measured by QPCR and expressed as fold-change versus day 35 of directed differentiation. […] Subsequently, IGF-1 was added to N2 media in all experiments (FIGS. 5-8, 10A-10D, 10F, 11, and 12A-12E). […] Subsequently, FGF2 was added to SkBM-2 media in experiments (FIGS. 5-8, 10A-10D, 10F, 11, and 12A-12E).\nHiPSC-SMPC subpopulations enrich for PAX7 but activate and increase expression of MYOD after passaging. […] (FIG. 9A).",
  "data": [
    {"molecule": "WNT7A: Wnt family member added to SKBM2 expansion media (protein, UniProt O00755 32-349, looked up) Protein Wnt-7a: LGASIICNKIPGLAPRQRAICQSRPDAIIVIGEGSQMGLDECQFQFRNGRWNCSALGERTVFGKELKVGSREAAFTYAIIAAGVAHAITAACTQGNLSDCGCDKEKQGQYHRDEGWKWGGCSADIRYGIGFAKVFVDAREIKQNARTLMNLHNNEAGRKILEENMKLECKCHGVSGSCTTKTCWTTLPQFRELGYVLKDKYNEAVHVEPVRASRNKRPTFLKIKKPLSYRKPMDTDLVYIEKSPNYCEEDPVTGSVGTQGRACNKTAPQASGCDLMCCGRGYNTHQYARVWQCNCKFHWCCYVKCNTCSERTEMYTCK", "values": [
      {"measurement": "stemness factors HEYL and CJUN", "setting": "passaged SMPCs in SKBM2", "value": "stabilize or increase stemness factors"},
      {"measurement": "PAX7 expression during expansion", "setting": "passaged SMPCs, compared to SKBM2 alone", "value": "rescues PAX7 expression"}
    ]}
  ]
}
